We go through ten molecules from PMC2897767, “Two Distinct Mechanisms for Actin Capping Protein Regulation—Steric and Allosteric Inhibition” (PLoS Biology, 2010).

Holding throughout (settings): both partners purified
In assay [1] the target is CPβΔC (chicken α1 full/β1 1–244; a deletion mutant CP lacking the β-tentacle) (chicken, UniProt P13127 1-286; P14315 1-244). The assay is described as follows: crystal structure; complexes formed with 1.2–2.0-fold molar excess of V-1 or peptide and purified by gel filtration; hanging-drop vapor diffusion at 20°C; molecular replacement. (Size exclusion chromatography separates by hydrodynamic size, large species first.)

The target of assay [2] is T1, actin capping protein (CP), chicken α1/β1, CP_full (chicken, UniProt P13127 1-286; P14315 1-277). As to the kind of experiment: SPR; competition: GST-CA92 immobilised, perfused with 50 nM wild type CP pre-mixed with various concentrations of CARMIL peptides (CA21 up to 500 nM).
Assay [3] deals with T1, actin capping protein (CP), chicken …. The assay is described as follows: SPR; as a1, but koff >0.1 s^-1: amount of bound CP at the steady state plotted against the concentration of CP (Michaelis-Menten plots under saturated binding conditions).
Assay [4] has the same target. The assay is described as follows: SPR; GST-fusion protein (GST-V-1, GST-CA or GST-CD) immobilised on a CM5 chip via anti-GST antibodies (up to 200 RU), CP perfused at 20 µl/min; 20°C; 50 mM KCl, 1 mM MgCl2, 0.005% Tween-20, 10 mM imidazole pH 7.0; 1:1 fit, KD from the kinetic rate constants (steady state for several fast-dissociating mutants). (In general: Surface plasmon resonance follows binding to a sensor surface in real time, without labels.)

For the next assay, the target named is CP (β) Y64F (chicken, UniProt P13127 1-286; P14315 1-277, Y64F). The description is as above.
For another assay, the target named is CP (β) D67N (chicken, UniProt P13127 1-286; P14315 1-277, D67N). As to the kind of experiment: SPR; as a1, but koff >0.1 s^-1: amount of bound CP at the steady state plotted against the concentration of CP (Michaelis-Menten plots under saturated binding conditions).
Another assay addresses CP (β) D44N (chicken, UniProt P13127 1-286; P14315 1-277, D44N). The description is as above.
The next assay deals with CP (β) D63N (chicken, UniProt P13127 1-286; P14315 1-277, D63N). Described as above.

A value given as a limit tells only on which side of the number the result lay.

B1: CK23, human CKIP-1 (148–70) (peptide)
peptide: SYLAHPTRDRAKIQHSRRPPTRG
notes: CKIP-1, human, residues printed as 148–70, read as 148–170 (23 residues); also called CARMIL peptide; source: synthetic peptide, Invitrogen
Regarding B1, the binding result in assay [1] and in assay [2] was “binds” each time.

B2: GST-CA55 (domain or fragment)
chain: FPSVRQEKRSSGLISELPSEEGRRLEHFTKLRPKRNKKQQPTQAAVCTISILPQD
notes: CARMIL, mouse, residues 962–1016
For B2, in assay [3], the Kd (in general, a measure of binding affinity in units of concentration) amounted to 4 µM and the koff (as a rule, a measure of how fast the partners let go of each other) is above 0.1 s⁻¹.

B3: GST-CA92 (domain or fragment)
chain: FPSVRQEKRSSGLISELPSEEGRRLEHFTKLRPKRNKKQQPTQAAVCTISILPQDGEQNGLMGRVDEGVDEFFTKKVTKMDCKRSSSRSSDA
notes: CARMIL, mouse, residues 962–1053
With B3, the Kd came to 3.3 nM in assay [4]; 10 nM in the assay with CP (β) Y64F; 4.9 µM with CP (β) D67N; 7.4 µM in the assay with CP (β) D44N; 1400 nM with CP (β) D63N. For the same molecule, the koff in assay [4] is 0.0052 s⁻¹; with CP (β) Y64F it was 0.0046 s⁻¹; in the assay with CP (β) D67N, above 0.1 s⁻¹; in the assay with CP (β) D44N, above 0.1 s⁻¹; with CP (β) D63N, above 0.1 s⁻¹. For the same molecule, the kon (as a rule, a measure of how fast the partners come together) in assay [4] stood at 1.6e+06 M⁻¹ s⁻¹; in the assay with CP (β) Y64F, 460000 M⁻¹ s⁻¹.

B4: GST-CD44 (domain or fragment)
chain: FDSLTVRTSKETDVVNFDDIASSENLLHLTANRPKMPGRRLPGR
notes: CD2AP, human, residues 461–504; cloned into pGEX-6P-1
In assay [4], B4 yielded a Kd of 62 nM, a koff of 0.033 s⁻¹ and a kon of 540000 M⁻¹ s⁻¹.

B5: GST-CA76 (domain or fragment)
chain: FPSVRQEKRSSGLISELPSEEGRRLEHFTKLRPKRNKKQQPTQAAVCTISILPQDGEQNGLMGRVDEGVDEFFTKK
notes: CARMIL, mouse, residues 962–1037
In assay [4], B5 came in with a Kd of 80 nM, a koff of 0.019 s⁻¹ and a kon of 230000 M⁻¹ s⁻¹.

B6: GST-CD47 (domain or fragment)
chain: FDSLTVRTSKETDVVNFDDIASSENLLHLTANRPKMPGRRLPGRFNG
notes: CD2AP, human, residues 461–507; cloned into pGEX-6P-1
Turning to B6, in assay [4], binding was put at a Kd of 18 nM, the koff stood at 0.029 s⁻¹ and the kon is 1.6e+06 M⁻¹ s⁻¹.

B7: GST-CD43 (domain or fragment)
chain: FDSLTVRTSKETDVVNFDDIASSENLLHLTANRPKMPGRRLPG
notes: CD2AP, human, residues 461–503; cloned into pGEX-6P-1
On to B7, for which, in assay [3], the affinity, expressed as Kd, was 0.26 µM and the koff is above 0.1 s⁻¹.

B8: GST-CA63 (domain or fragment)
chain: FPSVRQEKRSSGLISELPSEEGRRLEHFTKLRPKRNKKQQPTQAAVCTISILPQDGEQNGLMG
notes: CARMIL, mouse, residues 962–1024
In assay [3], B8 displayed a Kd of 3.3 µM and a koff above 0.1 s⁻¹.

B9: CD23, human CD2AP (485–507) (peptide)
peptide: NLLHLTANRPKMPGRRLPGRFNG
notes: CD2AP, human, residues 485–507; also called CARMIL peptide; source: synthetic peptide, Invitrogen
For the molecule B9, the binding result in assay [1] and in assay [2] was “binds” in each case.

B10: CA21, mouse CARMIL (residues 985–1005) (peptide)
peptide: RLEHFTKLRPKRNKKQQPTQA
notes: CARMIL, mouse, residues 985–1005; also called CARMIL peptide; source: synthetic peptide, Invitrogen
Consider B10, for which the binding result in assay [1] and in assay [2] was “binds” throughout.
